The results in this text go back to the nanobody polyreactivity screen of Harvey et al. (2022).

The series can be described thus: yeast display, Sf9 membrane polyspecificity reagent, FACS + sequencing; frameworks hold sequencing errors. Summed up: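 In a synthetic yeast display library (Saccharomyces cerevisiae BJ5465), nanobody expression was induced with galactose for 36–48 hours. FACS gates were set low and high (top ~1%) using anti-HA fluorescence for expression and streptavidin fluorescence for binding of the Sf9 membrane reagent. Each polyreactivity label is drawn from the gate of origin.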
As to “HVQLVESGGGLVQAGGSLRLSCAASGRIFPGYAMGWYRQAPGKERELVAGISNDASTNYADSVKGRFTISRDNAKNTVYLQMNSLKPEDTAVYYCAAEIYYLSVPRYDYWGQGTQVTVSS”, the “polyreactivity (PSR sort gate)” value was “low polyreactivity”.
Regarding “HVQLVESGGGLVQAGGSLRLSCAASGRIFSVYTMGWYRQAPGKDRELVATISSGGRTNYADSVKGRFTISRDNAKNTVYLQMNSLKPEDTAVYYCAAVPYGFVGYDDYWGQGTQVTVSS”, the “polyreactivity (PSR sort gate)” value is listed as “low polyreactivity”.
As for “HVQLVESGGGLVQAGGSLRLSCAASGRIFYYNGMGWYRPAPGKERELVAAITPSDTSTYYAVSVKGRFTISRDNAKNTVYLQMNSLKPEDTAVYYCNADYDNHEMDYWGQGTQVTVSS”, the entry is “low polyreactivity”; as for “HVQLVESGGGLVQAGGSLRLSCAASGRILRRNAMGWYRQAPGKEREFVAAITWRGGSTYYADSVKGRFTISRDNAKNTVYLQMNSLKPEDTAVYYCAADTYSVEYVLPYYYWGQGTQVTVSS”, “high polyreactivity”; as for “HVQLVESGGGLVQAGGSLRLSCAASGRNFIYNAMGWSSPAPGTDRELVAAINRSGVSTHYADSVKGRFTISRDNAKKTVYLQMNSLKPEDTAVEYCARTVYGARSYDYWGQGTQVTVSS”, “low polyreactivity”.
Consider “HVQLVESGGGLVQAGGSLRLSCAASGRTFVVYAMGWDRQAPGKERELVAAITSSGGSTYYADSVKGRFTISRDNAKNTVYLQMNSLKPEDTAVYYCNRVYVRAGVSVAYNYWGQGTQVTVSS”, for which the “polyreactivity (PSR sort gate)” value is given as “high polyreactivity”.
Under “HVQLVESGGGLVQAGGSLRLSCAASGSIFIKYAMGWYRQAPGKERELVAAISRRGGSTYYADSVKGRFTISRDNAKNTVYLQMNSLKPEDTAVYYCAAVNIRFGYWGQGTQVTVSS” stands “high polyreactivity”; under “HVQLVESGGGLVQAGGSLRLSCAASGSTFYNNAMGWTRQAPGKERELVAAITSSVGSTQYADSVKGRFTISRDKAKNTVYLPMNSLKPADTAVYYCAATFGYGRYGYWGQGTQVTVSS”, “low polyreactivity”.
Under “HVQLVESGGGLVQAGGSLRLSCAASGSTLYWNAIGWYRQAPGKEMELVASITSSGGSTYYADSVKGRFTISRDNAKNTVYLQMNSLKPEDTAVYYCATESWWRYSEYYYWGQGTQVTVSS” stands “low polyreactivity”.
As for “HVQLVESGGGLVQAGGSLRLSCAASGTFTYYAMGWYRQAPGKERELVAAITWRGGNTYYADSVKGRFTISRDNAKNTVYLQMNSLKPEDTAVYYCATDYWYIRWGGYYWGQGTQVTVSS”, the entry is “low polyreactivity”.
As for “HVQLVESGGGLVQAGGSLRLSCAASGYILDRNAMGWYRQAPGKESELVAVISWGGTRTYYADSVKGRFTISRDNAKNTVYLQMNSLKPEVTAVYYCARYPYYYGYAGRYDYWGQGTQVTVSS”, the “polyreactivity (PSR sort gate)” value is listed as “high polyreactivity”.
With “HVQLVESGGGLVQAGGSLRVSCAASGSILTRNAMGWYRQAPGKERELVAAITGSGGRTYYADSVKGRFTISRDNAKNTVDLQMNSLKPEDTAVYYCAAGWRFGRYSGDYWGQGTQVTVSS”, the “polyreactivity (PSR sort gate)” value is “high polyreactivity”.
As for “HVQLVETGGGLVQAGGSLRLSCAASGSTFYIYAMGCYRPAPGKEREFVAAIDFSGSSTYADSVKGRFTISRDNAKNTVYLQMNSLKPEDTAVYYCSARWYLTGGWTWVSFSHDYWGQGTQVTVSS”, the “polyreactivity (PSR sort gate)” value was “low polyreactivity”.
As to “HVQQQESGGGLVQAGGSLRLSCAASGYISVVIGMCWYRQSPGKERELVASIAYGAITYYTDRVKGRFTISRDYAKNTEYLQMNSLKAEDTAVYYCAADQPPLAYHWYWGQGTQATVSS”, the “polyreactivity (PSR sort gate)” value was “high polyreactivity”.
Consider “HVQRVESGGGLVQAGASLRLSCAASGGIFSPNAMGWYRQAPGKERELVAAISSNGGSTNYADSVKGRFTISRDNAKNTVYLQMNSLKPEDTAVYYCAGLQKRRSYWRPFYWGQGTQVTVSS”, for which the “polyreactivity (PSR sort gate)” value is given as “low polyreactivity”.
Under “IIQAGGSLRLSCAASGGTFFVYMGWYRQAPGKERELVADISGFGGGTYYADSVKGRFTISRDNAKNTVYLQMNSLKPEYTAVYYCATVVPTGIIRMYWGQGTQVTVSS” stands “low polyreactivity”.
As for “IIQEGGSLRLSCAASGRTFSGYAMGWYRQAPGKERELIADITSGGSTYYADSVKGRFTISRDNAKNTVYLQMNSLKPEDTAVYYCAAERQIRSFWSSRTYEFGYWGQGTQVTVSS”, the “polyreactivity (PSR sort gate)” value was “low polyreactivity”.
For “KFQLVESGGGLVQAVGSLRLSCDASGRTFYYYDMGWYRQAPGKERELVAAITWDGGRTYYADSVMGRFTISRDNAKNTVYLQMNSLKPEDTAVYYCNADDFFEILGECTLMDYWGQGTQVTVSS”, the “polyreactivity (PSR sort gate)” value is on record as “low polyreactivity”.
As to “KVHLVDSGGRLVQAGGSLRLSCSASGSIFYVYAMGWYRQAPGTERELVATISSSAGSTYYAYSVKGRFTISRDNAKNTVNLQMYSLNPVDTAVYYCYADSFLSWVYRYVYYVSGLWGQGTQVTVSS”, the “polyreactivity (PSR sort gate)” value is listed as “low polyreactivity”.
For the sequence “KVQLVESGAGLVQAGGSLRLSCAASGITFVRYVMGWYRQAPGKERELVAAISNSGGRTYYADSVKGRFTISRDNAKNTVYLQMNSLKPEDTAVYYCARRAGSYPYGYTGYDYWGQGTLVTVSS”, the “polyreactivity (PSR sort gate)” value was “high polyreactivity”.
As for “KVQLVESGGGLVQAGGSLRISCAASGSIFGYYTMGWYRQAPGKERELVARITRGGSTYYADSVKGRFTISRDNAKNTVYLHMNSLKPEDTAVYFCNADSRYRYEYWGLGTQVTVSS”, the entry is “low polyreactivity”; as for “KVQLVESGGGLVQAGGSLRITCAASGSNQASNAMGWYRQAPGKERELVAAIRVSGASTYYADSVKGRFTISRDNAKNTVYLQMKSLKPEYNAVYYCAADYQFGVIYYYWGQGTQVTLSS”, “low polyreactivity”.
Consider “KVQLVESGGGLVQAGGSLRLSCAASGLTFSYYAMGWYRQAPGKERELVAAITRSGTRTYYADSVKGRFTISRDNAKNTVYLQMNSLKPEDTAVYYCARYLRGDFQQGEHWGQGTQVTVSS”, for which the “polyreactivity (PSR sort gate)” value is “high polyreactivity”.
“KVQLVESGGGLVQAGGSLRLSCAASGSIFGDNAMGWYRQAPGKERELVAAINYNGGRTYYADSVKGRFTISRDNAKNTVYLQMNSLKPEDTAVYYCAKDNYQAPVQQYPFDYWGQGSQVTVSS”: the “polyreactivity (PSR sort gate)” value is recorded as “low polyreactivity”.
“KVQLVESGGGLVQAGGSLRLSCAASGSIFYYYAMGWYRQAPGKERELVAAISERGAYVLRRPVKGRFTISRDNAKNTVYLQMNSLKPEDTAVYYCAVGFNFQGWRYDYWGQGTQVNVSS”: the “polyreactivity (PSR sort gate)” value is recorded as “high polyreactivity”.
Under “KVQLVESGGGLVQAGGSLRLSCAASGSTFPPNAMGWNRQAPGKERELVAVISYSDGSTYYADSVKGRFTISRDNAKNTVYLQMNSLKPEDTAVYYCAAYSGYGGVSMYYWGQGTQVTVSS” stands “low polyreactivity”; under “KYYADSVKGRFTISRDNAKNTVYLQMNSLNPEDTAVYYCNAGYYISFNPYDYWGQGTQVTVSW”, “low polyreactivity”.
For the sequence “LEQLVESGGGLVHAGGSLRLSCAASRSNFPQYTLGWNRQAPVKERELVAAISNYGSSTYYADSEKGRFTISRDYAKNSVSLQMNSLKPEDTAVYECNADDYGYYPGVNYWGQGTQVTVSS”, the “polyreactivity (PSR sort gate)” value is recorded as “low polyreactivity”.
Under “LVQLQESGGGLVLAGGGLRLSCAASGNIFTYVIMGWYRQPPGKERELVAAITYGTITNYADSVKGPFTISRDNAKNTVYLQMNCLKPEDTAVYHCAVQSPRIEPRLYYWGQGTQVTVSS” stands “high polyreactivity”; under “LVQLQESRGGLVLAGGGLRLSCPESVNIFTYVIMGWYRQQPGKERELVAAITYGTFTNYADSVKGPFTISRDNAKNTVYLHMNCLKPEDTAVYHCAVQSPLIEPRLYYWGQGTQVTVSS”, “high polyreactivity”.
In the case of “LVQLVESGGGLVHAGGSLRLSCAASGSTFNIYAMGWYRQAPGKERELVAAISSSGGRTYYADSVKGRFTISRDNAKNTVYFQMIRLKPEDTAVYYCAARSRRVSLIRDSYGYWGQGTQVNVSS”, the “polyreactivity (PSR sort gate)” value is recorded as “high polyreactivity”.
As for “LVQLVESGGGLVQAGGSLRLSCAASGNTFVSNAMGWYRQAPGKERELVAAIDSGGSTNYADSVKGRFTISRDNAKNTVYLQMNSLKPDDTAVYYCTRTSVYYYYWGQGTQVTVSS”, the entry is “low polyreactivity”.
In the case of “LVQLVESGGGLVQAGGSLRLSCAASGRIFVGYAMGWFRQAPGKERELVAAISRRAGRTYYADSVKGRFTLSRDNAKNTVYLQMNSLKPEDTPVYYCIAPRYYPKAGFDYWGQGTQVTVSS”, the “polyreactivity (PSR sort gate)” value is “high polyreactivity”.
As for “LVQLVESGGGLVQAGGSLRLSCAASGYIIGFYVMGWYRQAPGKERELVAVIDYGSDNTYYADSVLGRYTISRDNAKNTVYLQMNSLKPEETAVYYCAAEWYKSNYYDYDTWGQGTQVTVSS”, the entry is “high polyreactivity”; as for “LVQLVESRGGLVQAGGSLRLSCAASGRTFAWYAMGWYRPAPGKERELVAAISNVGSTYYADTVKGRFTISRDNAKNTVYLQMNSLKPEDTAVYYCNPDAVSTDGREYWGQGTQVTVSS”, “low polyreactivity”; as for “LVQLVETGGGLVQAGGSLRLSCAASGSVFYSYAMGWYRQAPGKERELVAAISFSGGSTYYADSVKGRFTISRDNAKNTVYLQMNSLKPEDTAVYYCNTLSADTFDYWGQGTQVTVSS”, “low polyreactivity”.
As for “LVQLVQSGGGLVQAGGSLRLSCAASGRTFIGYAMGWYRQAPGKERELVAAITSDGGTNYADSVKGRFTISRDNAKNTVNLLMNSLKPEDTAVYDCAARRRVSYHLYGYWGQGTQVTVSS”, the “polyreactivity (PSR sort gate)” value is “high polyreactivity”.
Under “NVQLVESGGGLVQAGGSLRLSCAASGSTFDYYDMGWYRQAPWKERELVATITSGGSTNYADSVKGRFTITRDNAKNTVYLLMHSLKPEDTAVYYCDARIRSVVPFDMDYWGQGTQVTVSW” stands “low polyreactivity”; under “PDQLVESGGGLVQAGGSLRLSCAASGFIFTYYAMGWYRQAPGKERELVAAITRRGGSTYYADSVKGRFTISRDNAKNTVYLQMNRLKPEDTAVYYCNKVDQGRYGYWGQGTQVTVSS”, “high polyreactivity”.
Under “PLQLVESGGGLVQAGGSLRLSGAASGIIFNQYPMGWYRQAPGKEREFVPAISSSGGSTYYADSVKGRFTISRDYAKNTVYLQMNSLKPADTAVYFCSADSPGWTYTSRSYDYWGQGTQVTLSS” stands “low polyreactivity”.
Regarding “PVQLEESGGGLDQAGGSLRISCAASGRIFWAKAMGWYRQAPGKERELVAAINRRTGITYYADSVKGRFTISRDNAKNTVYFQMNSLKPEDTAVYYCAADWRTKCYDSLGQGTQVTVSS”, the “polyreactivity (PSR sort gate)” value is recorded as “high polyreactivity”.
